IntAct's records for PubMed 19561611

B1: Hedgehog-interacting protein (Homo sapiens), Q96QV1-1 (parent)
chain: MLKMLSFKLLLLAVALGFFEGDAKFGERNEGSGARRRRCLNGNPPKRLKRRDRRMMSQLELLSGGEMLCGGFYPRLSCCLRSDSPGLGRLENKIFSVTNNTECGKLLEEIKCALCSPHSQSLFHSPEREVLERDLVLPLLCKDYCKEFFYTCRGHIPGFLQTTADEFCFYYARKDGGLCFPDFPRKQVRGPASNYLDQMEEYDKVEEISRKHKHNCFCIQEVVSGLRQPVGALHSGDGSQRLFILEKEGYVKILTPEGEIFKEPYLDIHKLVQSGIKGGDERGLLSLAFHPNYKKNGKLYVSYTTNQERWAIGPHDHILRVVEYTVSRKNPHQVDLRTARVFLEVAELHRKHLGGQLLFGPDGFLYIILGDGMITLDDMEEMDGLSDFTGSVLRLDVDTDMCNVPYSIPRSNPHFNSTNQPPEVFAHGLHDPGRCAVDRHPTDININLTILCSDSNGKNRSSARILQIIKGKDYESEPSLLEFKPFSNGPLVGGFVYRGCQSERLYGSYVFGDRNGNFLTLQQSPVTKQWQEKPLCLGTSGSCRGYFSGHILGFGEDELGEVYILSSSKSMTQTHNGKLYKIVDPKRPLMPEECRATVQPAQTLTSECSRLCRNGYCTPTGKCCCSPGWEGDFCRTAKCEPACRHGGVCVRPNKCLCKKGYLGPQCEQVDRNIRRVTRAGILDQIIDMTSYLLDLTSYIV

Variants of: B1
Conditions: with shh_mouse Shh

effect of a mutation on the interaction	Variant
disrupting interaction strength	D383A
disrupting interaction strength	D383R
